Laboratory results reported in US12576029B2, “Noncompetitive receptor-targeted vaccine delivery to plasmacytoid dendritic cells” (Washington University, priority 2022, dated 2026).

Test system: pDC
Experiment: pDC fraction after FLT3L injection in mice
Format: in vivo
Settings: after 7 days
Text: Inbred mice and distribution of dendritic cells: BL/6, SV129 and […] inbred mouse lines were obtained from Jackson Laboratory (Bar Harbor, ME) The distribution of dendritic cells were examined using flow cytometry by using fluorochrome-conjugated monoclonal antibodies. Briefly, cells from spleen and liver were isolated from the mice and stained using fluorophore labeled antibodies. Cells were then fixed using 4% paraformaldehyde and analyzed by flow cytometry.
Further, the amount of pDC fraction was found inducible with injection of FMS-like tyrosine kinase 3 ligand in mice after 7 days (FIG. 2A-2B). Incubation of bone marrow differentiation culture with mouse transferrin for 7 days enhanced CD71 expression and pDC fraction (FIG. 2C-2D).

B1: FMS-like tyrosine kinase 3 ligand: FMS-like tyrosine kinase 3 ligand injected in mice to induce pDC fraction (protein, UniProt P49771 27-235, looked up)
Fms-related tyrosine kinase 3 …: TQDCSFQHSPISSDFAVKIRELSDYLLQDYPVTVASNLQDEELCGGLWRLVLAQRWMERLKTVAGSKMQGLLERVNTEIHFVTKCAFQPPPSCLRFVQTNISRLLQETSEQLVALKPWITRQNFSRCLELQCQPDSSTLPPPWSPRPLEATAPTAPQPPLLLLLLLPVGLLLLAAAWCLHWQRTRRRTPRPGEQVPPVPSPQDLLLVEH
- pDC fraction: inducible
- pDC fraction (listed as FLT3L): inducible upregulation
